From patent US20170314054A1 (ROCHE SEQUENCING SOLUTIONS, published 2017) come the findings set out here.

Assay [1] deals with T1, microbial transglutaminase from Streptomyces mobaraensis (MTG) (Streptomyces mobaraensis, UniProt P81453 77-407).
T1 sequence (looked up): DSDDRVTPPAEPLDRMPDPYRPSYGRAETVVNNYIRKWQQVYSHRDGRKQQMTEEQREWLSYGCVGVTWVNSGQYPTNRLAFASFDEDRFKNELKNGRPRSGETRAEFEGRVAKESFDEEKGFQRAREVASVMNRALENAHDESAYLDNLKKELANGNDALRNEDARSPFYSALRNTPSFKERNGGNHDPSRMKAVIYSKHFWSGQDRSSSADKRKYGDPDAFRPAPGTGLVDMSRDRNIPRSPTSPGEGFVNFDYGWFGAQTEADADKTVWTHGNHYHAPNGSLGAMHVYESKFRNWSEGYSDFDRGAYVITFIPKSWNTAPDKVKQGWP
Description: cell-based or functional assay.

Assay [2] has as its target T1, microbial transglutaminase from …. Description: cell-based or functional assay. This is another data set of the same source.

No end group written: not given here.

As to HYALQ (also: flanked by G:S (3:1) linkers on peptide array) [HYALQ (SEQ ID NO: 19)], the “Log2(signal), array MTG labeling with N-(Biotinyl)cadaverine” value (“Log2(signal), array MTG labeling” below) in assay [1] is 15.2 Log2(signal).

Take RYALQ (not fully specified) [RYALQ (SEQ ID NO: 14)]: the “Log2(signal), array MTG labeling” value in assay [1] is 15.3 Log2(signal).

For EYVAQ (also: flanked by G:S (3:1) linkers on peptide array) [EYVAQ (SEQ ID NO: 13)], in assay [1], the “Log2(signal), array MTG labeling” value was 15.3 Log2(signal).

On to FYALQ (also: flanked by G:S (3:1) linkers on peptide array) [FYALQ (SEQ ID NO: 10)], for which the “Log2(signal), array MTG labeling” value in assay [1] is 15.4 Log2(signal).

With DFALQ [DFALQ (SEQ ID NO: 7)], the “Log2(signal), array MTG labeling” value in assay [1] was 15.4 Log2(signal).

On to PYVLQ (also: flanked by G:S (3:1) linkers on peptide array) [PYVLQ (SEQ ID NO: 16)], for which the “Log2(signal), array MTG labeling” value in assay [1] was 15.3 Log2(signal).

For DYTLQ [DYTLQ (SEQ ID NO: 11)], the “Log2(signal), array MTG labeling” value in assay [1] was 15.3 Log2(signal).

With KLSKL (also: flanked by G:S (3:1) linkers on peptide array) [KLSKL (SEQ ID NO: 57)], in assay [2], the “A (array MTG labeling signal with Z-Gln-Gly-CAD-biotin)” value amounted to 13.4.

With KLGAK (also: flanked by G:S (3:1) linkers on peptide array) [KLGAK (SEQ ID NO: 72)], in assay [2], the “A (array MTG labeling signal with Z-Gln-Gly-CAD-biotin)” value worked out at 13.3.

Turning to SYALQ (not fully specified) [SYALQ (SEQ ID NO: 18)], the “Log2(signal), array MTG labeling” value in assay [1] was 15.2 Log2(signal).

As to EYALQ (also: flanked by G:S (3:1) linkers on peptide array) [EYALQ (SEQ ID NO: 4)], the “Log2(signal), array MTG labeling” value in assay [1] is 15.5 Log2(signal).

Regarding TKSKL (not fully specified) [TKSKL (SEQ ID NO: 56)], the “A (array MTG labeling signal with Z-Gln-Gly-CAD-biotin)” value in assay [2] came out at 13.4.

With WYALQ (not fully specified) [WYALQ (SEQ ID NO: 17)], the “Log2(signal), array MTG labeling” value in assay [1] is 15.3 Log2(signal).

With RGSKL (also: flanked by G:S (3:1) linkers on peptide array) [RGSKL (SEQ ID NO: 59)], the “A (array MTG labeling signal with Z-Gln-Gly-CAD-biotin)” value in assay [2] was 13.4.

Turning to EFALQ (also: flanked by G:S (3:1) linkers on peptide array) [EFALQ (SEQ ID NO: 23)], in assay [1], the “Log2(signal), array MTG labeling” value is 15.2 Log2(signal).

On to FPKLK (also: flanked by G:S (3:1) linkers on peptide array) [FPKLK (SEQ ID NO: 61)], for which the “A (array MTG labeling signal with Z-Gln-Gly-CAD-biotin)” value in assay [2] is 13.4.

Regarding DFYLQ [DFYLQ (SEQ ID NO: 22)], in assay [1], the “Log2(signal), array MTG labeling” value was 15.2 Log2(signal).

In the case of NFVLQ (not fully specified; also: flanked by G:S (3:1) linkers on peptide array) [NFVLQ (SEQ ID NO: 25)], the “Log2(signal), array MTG labeling” value in assay [1] was 15.2 Log2(signal).

As for RLKSK (also: flanked by G:S (3:1) linkers on peptide array) [RLKSK (SEQ ID NO: 67)], the “A (array MTG labeling signal with Z-Gln-Gly-CAD-biotin)” value in assay [2] was 13.3.

As for RAKYK (also: flanked by G:S (3:1) linkers on peptide array) [RAKYK (SEQ ID NO: 70)], in assay [2], the “A (array MTG labeling signal with Z-Gln-Gly-CAD-biotin)” value worked out at 13.3.

Turning to FTKSK (also: flanked by G:S (3:1) linkers on peptide array) [FTKSK (SEQ ID NO: 64)], the “A (array MTG labeling signal with Z-Gln-Gly-CAD-biotin)” value in assay [2] worked out at 13.4.

As to DYFLQ [DYFLQ (SEQ ID NO: 8)], the “Log2(signal), array MTG labeling” value in assay [1] is 15.4 Log2(signal).

Consider RSKSK (not fully specified) [RSKSK (SEQ ID NO: 62)], for which the “A (array MTG labeling signal with Z-Gln-Gly-CAD-biotin)” value in assay [2] is 13.4.

In the case of PYALQ (also: flanked by G:S (3:1) linkers on peptide array) [PYALQ (SEQ ID NO: 5)], the “Log2(signal), array MTG labeling” value in assay [1] is 15.4 Log2(signal).

Consider KLKYK (also: flanked by G:S (3:1) linkers on peptide array) [KLKYK (SEQ ID NO: 65)], for which the “A (array MTG labeling signal with Z-Gln-Gly-CAD-biotin)” value in assay [2] was found to be 13.4.

For GRSKL (also: flanked by G:S (3:1) linkers on peptide array) [GRSKL (SEQ ID NO: 69)], in assay [2], the “A (array MTG labeling signal with Z-Gln-Gly-CAD-biotin)” value stood at 13.3.

In the case of KSKLA (also: flanked by G:S (3:1) linkers on peptide array) [KSKLA (SEQ ID NO: 55)], the “A (array MTG labeling signal with Z-Gln-Gly-CAD-biotin)” value in assay [2] is 13.4.

For the molecule NYALQ (also: flanked by G:S (3:1) linkers on peptide array) [NYALQ (SEQ ID NO: 3)], in assay [1], the “Log2(signal), array MTG labeling” value is 15.5 Log2(signal).

On to SKLSK (not fully specified) [SKLSK (SEQ ID NO: 71)], for which the “A (array MTG labeling signal with Z-Gln-Gly-CAD-biotin)” value in assay [2] is 13.3.

NYVLQ (also: flanked by G:S (3:1) linkers on peptide array) [NYVLQ (SEQ ID NO: 12)]: the “Log2(signal), array MTG labeling” value in assay [1] was 15.3 Log2(signal).

Turning to YFALQ (not fully specified) [YFALQ (SEQ ID NO: 15)], in assay [1], the “Log2(signal), array MTG labeling” value is 15.3 Log2(signal).

Regarding EYVLQ (not fully specified; also: flanked by G:S (3:1) linkers on peptide array) [EYVLQ (SEQ ID NO: 6)], the “Log2(signal), array MTG labeling” value in assay [1] was 15.4 Log2(signal).

On to ARSKL [ARSKL (SEQ ID NO: 54)], for which the “A (array MTG labeling signal with Z-Gln-Gly-CAD-biotin)” value in assay [2] turned out to be 13.4.

As to DYALQ [DYALQ (SEQ ID NO: 1)], in assay [1], the “Log2(signal), array MTG labeling” value was 15.5 Log2(signal).

In the case of QRSKL (also: flanked by G:S (3:1) linkers on peptide array) [QRSKL (SEQ ID NO: 73)], the “A (array MTG labeling signal with Z-Gln-Gly-CAD-biotin)” value in assay [2] is 13.3.

Take RGTKL (also: flanked by G:S (3:1) linkers on peptide array) [RGTKL (SEQ ID NO: 60)]: the “A (array MTG labeling signal with Z-Gln-Gly-CAD-biotin)” value in assay [2] turned out to be 13.4.

On to RSKLG (not fully specified) [RSKLG (SEQ ID NO: 58)], for which the “A (array MTG labeling signal with Z-Gln-Gly-CAD-biotin)” value in assay [2] turned out to be 13.4.

Consider EYFLQ (also: flanked by G:S (3:1) linkers on peptide array) [EYFLQ (SEQ ID NO: 24)], for which the “Log2(signal), array MTG labeling” value in assay [1] was 15.2 Log2(signal).

Turning to RSKLA (not fully specified) [RSKLA (SEQ ID NO: 68)], in assay [2], the “A (array MTG labeling signal with Z-Gln-Gly-CAD-biotin)” value came to 13.3.

Take SKSKL (not fully specified) [SKSKL (SEQ ID NO: 63)]: the “A (array MTG labeling signal with Z-Gln-Gly-CAD-biotin)” value in assay [2] was found to be 13.4.

On to DYVAQ [DYVAQ (SEQ ID NO: 20)], for which, in assay [1], the “Log2(signal), array MTG labeling” value was 15.2 Log2(signal).

NYFLQ (also: flanked by G:S (3:1) linkers on peptide array) [NYFLQ (SEQ ID NO: 9)]: in assay [1], the “Log2(signal), array MTG labeling” value is 15.4 Log2(signal).

For the molecule EFVAQ (also: flanked by G:S (3:1) linkers on peptide array) [EFVAQ (SEQ ID NO: 21)], in assay [1], the “Log2(signal), array MTG labeling” value is 15.2 Log2(signal).

PKTKL (also: flanked by G:S (3:1) linkers on peptide array) [PKTKL (SEQ ID NO: 66)]: the “A (array MTG labeling signal with Z-Gln-Gly-CAD-biotin)” value in assay [2] was found to be 13.3.

In the case of DYVLQ (also: flanked by G:S (3:1) linkers on peptide array) [DYVLQ (SEQ ID NO: 2)], the “Log2(signal), array MTG labeling” value in assay [1] was 15.5 Log2(signal).
